{"source": "paper PMC4539596", "about": "“Three-dimensional electron microscopy reconstruction and cysteine-mediated crosslinking provide a model of the type III secretion system needle tip complex” (Molecular Microbiology, 2014)", "molecules": {"B1": {"name": "IpaD C322S/S173C/K258C (natural protein)", "chain": "MNITTLTNSISTSSFSPNNTNGSSTETVNSDIKTTTSSHPVSSLTMLNDTLHNIRTTNQALKKELSQKTLTKTSLEEIALHSSQISMDVNKSAQLLDILSRNEYPINKDARELLHSAPKEAELDGDQMISHRELWAKIANSINDINEQYLKVYEHAVSSYTQMYQDFSAVLSCLAGWISPGGNDGNSVKLQVNSLKKALEELKEKYKDKPLYPANNTVSQEQANKWLTELGGTIGKVSQKNGGYVVSINMTPIDNMLCSLDNLGGNGEVVLDNAKYQAWNAGFSAEDETMKNNLQTLVQKYSNANSIFDNLVKVLSSTISSSTDTDKLFLHF", "notes": "IpaD, Shigella flexneri, with the intrinsic cysteine 322 changed to serine and two cysteines put in (helix α3 and helix α6); also called ipaDS173C/K258C; source: S. flexneri ΔipaD, ΔipaB ΔipaD or ΔmxiH ΔipaD background, from pUC18 ipaD_(C322S); on needle tips, in sheared needles or crudely purified needle complexes"}}, "key": {"[1]": {"target": "IpaD_avitag (Shigella flexneri) (UniProt P18013)", "assay": "avidin labelling with negative-stain EM; needle complexes with biotinylated Avitag proteins held on Ni-NTA beads by His6-MxiG, avidin in 300 to 500 molar excess overnight at 4°C, washed, eluted, negative stain; avidin counted on the needle tips"}, "MxiH (Shigella flexneri)": {"target": "MxiH (Shigella flexneri) (UniProt P0A223)", "sequence (P0A223 whole entry)": "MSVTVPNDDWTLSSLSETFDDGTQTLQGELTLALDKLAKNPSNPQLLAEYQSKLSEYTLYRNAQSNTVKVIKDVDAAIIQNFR", "assay": "avidin labelling with negative-stain EM; needle complexes with biotinylated Avitag proteins held on Ni-NTA beads by His6-MxiG, avidin in 300 to 500 molar excess overnight at 4°C, washed, eluted, negative stain; avidin counted on the needle tips"}, "IpaB (Shigella flexneri)": {"target": "IpaB (Shigella flexneri)", "assay": "avidin labelling with negative-stain EM; needle complexes with biotinylated Avitag proteins held on Ni-NTA beads by His6-MxiG, avidin in 300 to 500 molar excess overnight at 4°C, washed, eluted, negative stain; avidin counted on the needle tips"}, "IpaD (Shigella flexneri) [2]": {"target": "IpaD (Shigella flexneri) (UniProt P18013)", "assay": "negative-stain EM three-dimensional reconstruction; tip complex and needle of purified needle complexes from the ΔipaB strain; single particle and helical image analysis, 25 Å; complex assembled on the bacteria"}, "IpaD (Shigella flexneri) [3]": {"target": "IpaD (Shigella flexneri) (UniProt P18013)", "assay": "negative-stain EM three-dimensional reconstruction; tip complex and needle of purified needle complexes from the wild-type strain; the half of the images with the lower cross-correlation to the ΔipaB map, 24 Å; complex assembled on the bacteria"}, "IpaD (Shigella flexneri) [4]": {"target": "IpaD (Shigella flexneri) (UniProt P18013)", "assay": "negative-stain EM three-dimensional reconstruction; tip complex and needle of needle complexes purified on Ni-NTA by His6-MxiG from mxiH mutant strains (Q51A, P44A, P44A+Q51A), 21-24 Å; Q51A map refined to 19 Å; complex assembled on the bacteria"}, "[5]": {"target": "the molecule itself", "assay": "cross-linking; bacteria of otherwise wild-type background treated with 30 uM BM(PEG)2, quenched; crudely purified needle complexes, Western blot with anti-IpaD and anti-IpaB; no bands with the oxidiser; pattern unchanged on addition of Congo red"}}, "data": [{"molecule": "IpaD_avitag (from UniProt P18013 1-332) (natural protein)", "values": [{"measurement": "stoichiometry N", "setting": "[1]", "value": 4}, {"measurement": "percent of needle tips labelled with at least one avidin", "setting": "MxiH (Shigella flexneri)", "value": 25, "unit": "%"}]}, {"molecule": "IpaB_avitag (natural protein)", "values": [{"measurement": "percent of needle tips labelled with at least one avidin", "setting": "MxiH (Shigella flexneri)", "value": 2.5, "unit": "%"}]}, {"molecule": "IpaD (from UniProt P18013 1-332) (natural protein)", "values": [{"measurement": "stoichiometry N", "setting": "IpaB (Shigella flexneri)", "value": 4}, {"measurement": "stoichiometry N", "setting": "IpaD (Shigella flexneri) [2]", "value": 5}, {"measurement": "stoichiometry N", "setting": "IpaD (Shigella flexneri) [3]", "value": 4}, {"measurement": "stoichiometry N", "setting": "IpaD (Shigella flexneri) [4]", "value": 4}]}, {"molecule": "B1", "values": [{"measurement": "stoichiometry N", "setting": "[5]", "value": 5}]}]}
